# Data published in article PMC3926959.
# T1: Ndc1-mTurquoise2 (S. cerevisiae), P32500
# T1 chain: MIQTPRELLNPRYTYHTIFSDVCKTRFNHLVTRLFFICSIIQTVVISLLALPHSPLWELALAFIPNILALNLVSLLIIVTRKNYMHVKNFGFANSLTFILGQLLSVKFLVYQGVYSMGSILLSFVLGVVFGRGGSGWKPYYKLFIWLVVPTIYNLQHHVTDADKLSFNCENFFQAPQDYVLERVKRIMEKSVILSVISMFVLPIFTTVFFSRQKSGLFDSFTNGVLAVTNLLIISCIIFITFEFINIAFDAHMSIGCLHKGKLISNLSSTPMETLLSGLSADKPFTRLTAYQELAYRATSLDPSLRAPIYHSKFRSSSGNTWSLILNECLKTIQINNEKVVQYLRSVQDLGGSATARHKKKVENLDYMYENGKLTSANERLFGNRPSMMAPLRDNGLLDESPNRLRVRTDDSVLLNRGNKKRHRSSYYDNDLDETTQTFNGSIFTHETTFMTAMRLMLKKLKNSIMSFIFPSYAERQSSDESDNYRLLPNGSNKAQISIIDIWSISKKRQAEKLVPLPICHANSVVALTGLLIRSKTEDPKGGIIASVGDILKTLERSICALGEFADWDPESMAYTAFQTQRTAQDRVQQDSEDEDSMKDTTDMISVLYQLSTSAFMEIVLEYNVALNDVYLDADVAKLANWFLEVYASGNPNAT
# B1: Mps3-YFP, P47069 1-682 (natural protein)
# chain: MNNSNEHRREEAGAANEQMPYNKAVKSAYADVLKDKMNREQEISLRAIKKGIYTDGGETDNYDMDKENDSAYEMFKKNLDFPLDQHNDDDDDDPYIEDNGQETDGYSDEDYTDEADKSFIEDSDSDSYDLESNSDFEENLESSGEAKKLKWRTYIFYGGLFFVFYFFGSFLMTTVKNNDLESHSSGATSSPGKSFSNLQKQVNHLYSELSKRDEKHSSELDKTVKIIVSQFEKNIKRLLPSNLVNFENDINSLTKQVETISTSMSELQRRNHKFTVENVTQWQDQLVKQLDTHLPQEIPVVINNSSSLLIIPELHNYLSALISDVIESPGIGTAGSAESRWEYDLNRYVKEILSNELQYIDKDYFIQEMNRRLQSNKQEIWEEITNRLETQQQQQQQQVQQDYSNVPQQYSSILMKRLIHQIYNSNQHQWEDDLDFATYVQGTKLLNHLTSPTWRQGSGVQPIELLTDSKQSSSTYWQCENEPGCSWAIRFKTPLYLTKISYMHGRFTNNLHIMNSAPRLISLYVKLSQTKEIKALQTLANQYGFGQHHKRDRNYIKIAKFEYRLTDSRIRQQMYLPPWFIQLKPLVRSIVFQVDENYGNKKFISLRKFIINGVTPQDLQIIENNEFPVLLGDTPEYGVTQNTDEGKRKVLLSKPPYASSSTSTKFHPASNVPSFGQDELDQ
# Molecular target: T1, Ndc1-mTurquoise2 (S. cerevisiae), P32500
# Assay: line-scanning fluorescence cross-correlation spectroscopy
# Conditions: remark: other sources report otherwise
binder,measurement,value
B1,percent of Ndc1-mTurquoise2 in a complex (FCCS),2%
